Ends that are not written are not given here. CF = 5(6)-carboxyfluorescein
Biological target: T1, Neural cell adhesion molecule (NCAM, CD56) (human, UniProt P13591 20-858)
T1 construct: whole, on cells
Experiment: confocal microscopy of Saos-2 cells with fluorescently labeled peptide
Method: Cell specificity and uptake of the fluorescently labeled peptides was monitored utilizing a Zeiss Meta LSM 510 confocal imaging system. Cells were plated on glass slides and incubated overnight. The following day cells were incubated with 100 μM of CF-NTP or CF-scrambled peptide for 30 minutes at 37° C., washed several times with PBS, fixated with 4% paraformaldehyde, stained with Hoechst stain and mounted on slides. In order to examine intracellular trafficking of the peptide, cells were incubated with the peptides in serum free medium, washed several times with cold PBS and incubated with […] AlexaFluor 594 human transferrin for 1 h at 37° C. Cells were washed several times with PBS, fixated with 4% PFA, stained with Hoechst stain and mounted on slides.
Binding of NTP (SEQ ID NO:1) to Saos-2 cells, compared to binding of sNTP (SEQ ID NO:2), was examined by confocal microscopy. FITC-labeled targeting peptides were used. […] In experiments with transferrin, peptide was seen as intracellular aggregates or vesicles, though not colocalized with transferrin.

T1 sequence (P13591 20-858): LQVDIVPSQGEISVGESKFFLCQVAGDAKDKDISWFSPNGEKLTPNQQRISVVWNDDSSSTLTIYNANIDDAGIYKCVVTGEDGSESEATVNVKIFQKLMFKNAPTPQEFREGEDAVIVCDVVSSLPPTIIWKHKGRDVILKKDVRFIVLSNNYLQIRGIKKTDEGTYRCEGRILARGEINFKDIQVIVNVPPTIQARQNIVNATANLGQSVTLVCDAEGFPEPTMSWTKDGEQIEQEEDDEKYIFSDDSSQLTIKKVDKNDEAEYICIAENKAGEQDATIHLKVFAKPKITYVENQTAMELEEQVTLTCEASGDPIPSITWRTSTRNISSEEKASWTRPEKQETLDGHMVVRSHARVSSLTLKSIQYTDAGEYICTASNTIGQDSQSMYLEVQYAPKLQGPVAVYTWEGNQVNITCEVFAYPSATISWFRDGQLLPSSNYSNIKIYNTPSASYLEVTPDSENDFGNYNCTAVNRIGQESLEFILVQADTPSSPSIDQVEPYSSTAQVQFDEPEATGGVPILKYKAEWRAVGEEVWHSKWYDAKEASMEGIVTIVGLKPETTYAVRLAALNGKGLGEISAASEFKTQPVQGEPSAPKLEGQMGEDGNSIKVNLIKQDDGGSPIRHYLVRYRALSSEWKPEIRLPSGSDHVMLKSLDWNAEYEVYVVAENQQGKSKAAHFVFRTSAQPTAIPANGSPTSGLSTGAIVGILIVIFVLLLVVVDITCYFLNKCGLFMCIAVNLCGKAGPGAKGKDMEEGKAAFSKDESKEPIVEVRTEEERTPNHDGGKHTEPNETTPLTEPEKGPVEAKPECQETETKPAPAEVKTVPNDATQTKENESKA

binding result: no binding (tested: 100 µM)
B1: scrambled NTP sequence (sNTP), fluorescein-labeled (peptide)
peptide: {CF}-GESDDEND
notes: also called scrambled peptide; CF-scrambled peptide

Source: patent US20150017115A1 (RAMOT AT TEL AVIV UNIVERSITY, published 2015)
